Data on two compounds can be found in US20180280528A1, “ANTIFOLATE CONJUGATES FOR TREATING INFLAMMATION” (ENDOCYTE, INC., priority 2015, published 2018).

The nature of data set [1]: Incubation with rat TG macrophage cell lysates. The settings on record: rat TG macrophage lysate, pH 4.5, 37° C., 1 hour. The class given is in vitro ADME. The method, then:
Female Lewis rats approximately 200 grams in size (Harlan Laboratories, Indianapolis, Ind.) were injected intraperitoneally at 20 mL/kg of body weight with sterile 7.5% thioglycollate solution (BD Biosciences) supplemented with 12.5% BSA aged for more than 6 months in the presence of 0.5 M D-glucose at 37° C. in the dark according to the procedure of Li et al. (Journal of Immunological Methods (1997) 201:183-188). Three days later these rats were humanely euthanized with CO2 asphyxiation and total peritoneal cells isolated by intraperitoneal lavage with 50 mL of sterile phosphate buffered saline (PBS) containing 0.5 mM EDTA. Red blood cells were lysed with a 5 minute incubation with 1×RBC lysis buffer (BioLegend, San Diego, Calif.). […] Cells were incubated for 2 hrs in 5% CO2. After two hours, floating cells/debris was removed and the adherent cells were washed once with drug free media. Normal growth media (10% FCS RPMI1640) was added to each plate of cells and then incubated for 1, 2 and 3 days in the tissue culture incubator. The adherent cells were harvested using an 8 minute trypsin digest to loosen the cells and then gently scraped off the plate. […] Live cells were counted and then washed once with cold PBS. […]

Another data set can be described thus: Pharmacokinetics in dogs. The settings on record: beagle, dog, in vivo. The method, then: (§1) The samples were centrifuged under refrigeration for at least 10 minutes at 3000 rpm and the plasma generated stored at −20° C. until LC-MS/MS analysis.
as §1
LC-MS/MS analysis utilized a Waters Acquity UPLC system paired with a Waters Quattro Premier XE tandem quadrupole mass spectrometer operating in ESI positive mode. Prior to injection, K3EDTA plasma samples were processed using a Phenomenex Strata X-A solid phase extraction (SPE) plate. All plasma samples were fortified with N-Maleoyl-β-alanine, mannitol, and acetic acid. Briefly, 50 μL of plasma diluted with 50 μL of internal standard solution and 500 μL 1000:4:1.5 water:ammonium hydroxide:formic acid was mixed and loaded onto a preconditioned Strata X-A SPE plate. Aqueous and organic washes were then applied followed by elution of all analytes with 300:200:7.5 methanol:water:formic acid. The samples were evaporated until approximately 30 μL remained in all wells and 30 μL of 9:1 water:ammonium hydroxide was then added. Finally, the plate was sealed, mixed, and centrifuged prior to transfer to the 2-8° C. Acquity autosampler. Note: During EC1669 analysis, EC0470 was converted to a hydrazone product for bioanalysis. Acetone (500 μL) was added to all samples after the first evaporation step followed by sealing all wells and heating at 50° C. for one hour. After this step, the acetone was evaporated and the extraction completed as described above.
A 10 μL sample volume was applied to the Waters BEH Shield RP18 100×2.1 mm, […] UPLC column operating at a flow rate of 0.4 mL/min while being maintained at 45° C. A gradient between mobile phase A (1000:4:1.5 water:ammonium hydroxide:formic acid) and mobile phase B (acetonitrile) was used to separate the analytes. The gradient was held at 2% B for the first 30 seconds of the chromatographic run followed by increasing to 20% B by 2.5 minutes. A rapid gradient from 60-90% B is then used to clean the column prior to equilibration at 2% B to complete the 4 minute run cycle.
For EC1669 MS/MS analysis, EC1669 and its known major metabolites, EC1886 and […], were optimized and monitored. […] In all cases, internal standard response was used to generate response ratios for each analyte. When calibrated, data was regressed using MassLynx 4.1 software. The table below lists transitions for analytes and internal standards monitored for LC-MS/MS bioanalysis.

Data set [2] can be described thus: Plasma protein binding by ultrafiltration, human plasma. It counts as in vitro ADME. The settings on record: 500 nM. On the procedure: (§2) EC2319 and EC1669 plasma protein binding was evaluated by ultra filtration using VWR 30K MWCO modified PES filters. 250 μL of 500 nM EC2319 or EC1669 in K3EDTA plasma incubated at 37° C. was added to the upper filter vessel. 50 μL was immediately removed as the donor plasma sample and aliquoted into a clean 1.2 mL plate. […] An aliquot of […] plasma ultrafiltrate was then added to the 1.2 mL plate as the receiver sample. To each plasma sample, 50 μL of plasma ultrafiltrate was added, and each ultrafiltrate sample received 50 μL of plasma to mitigate matrix effects. N-Maleoyl-β-alanine, mannitol, and acetic acid were added at the end of each experiment to stabilize the samples prior to LC-MS/MS analysis.

Data set [3] in a line: Plasma protein binding by ultrafiltration, dog plasma. It counts as in vitro ADME. To be noted: 500 nM. On the procedure:
as §2

For the compound `N=c1[nH]c(N)nc2ncc(CNc3ccc(C(=O)N[C@@H](CCC(=O)NNC(=O)OCCSSC[C@@H](NC(=O)[C@H](CCC(=O)NC[C@H](O)[C@@H](O)[C@H](O)[C@H](O)CO)NC(=O)[C@@H](CCC(=O)O)NC(=O)[C@H](CCC(=O)NC[C@H](O)[C@@H](O)[C@H](O)[C@H](O)CO)NC(=O)[C@@H](CCC(=O)O)NC(=O)[C@H](CCC(=O)NC[C@H](O)[C@@H](O)[C@H](O)[C@H](O)CO)NC(=O)CC[C@H](NC(=O)c4ccc(NCc5cnc6nc(N)[nH]c(=O)c6n5)cc4)C(=O)O)C(=O)O)C(=O)O)cc3)nc12` [EC1669, reference compound], the aminopterin release entry in data set [1] is “greater from EC1669 than from EC2319”. Besides, in the data set “Pharmacokinetics in dogs” (sc, 2.4 mg/kg), the AUC(0-t) was determined as 4.07 µM·h, the highest level (Cmax) was 1390 nM, the Tmax is 1.19 h and the half-life was 0.994 h. Moreover, the plasma protein binding result in data set [2] is on record as “high plasma protein binding”. The plasma protein binding result in data set [3] is on record as “high plasma protein binding”.

Consider `COC(=O)[C@H](CSSC(C)(C)[C@H](NC(=O)[C@H](CCC(=O)NC[C@H](O)[C@@H](O)[C@H](O)[C@H](O)CO)NC(=O)[C@H](CCC(=O)O)NC(=O)[C@H](CCC(=O)NC[C@H](O)[C@@H](O)[C@H](O)[C@H](O)CO)NC(=O)[C@H](CCC(=O)O)NC(=O)[C@H](CCC(=O)NC[C@H](O)[C@@H](O)[C@H](O)[C@H](O)CO)NC(=O)CC[C@H](NC(=O)c1ccc(NCc2cnc3nc(N)[nH]c(=O)c3n2)cc1)C(=O)O)C(=O)O)NC(=O)CC[C@H](NC(=O)c1ccc(NCc2cnc3nc(N)nc(N)c3n2)cc1)C(=O)O` [EC2319], for which, in data set [1], the aminopterin release entry is reported as “aminopterin release was observed”. In the data set “Pharmacokinetics in dogs” (male, 2.43 mg/kg), the bioavailability came to 133%. In addition, in the data set “Pharmacokinetics in dogs” (male, iv, 1 mg/kg), the Tmax was 0.03 h, the Vd turned out to be 0.41 L/kg, the clearance is 4.7 mL/min/kg and the half-life is 1.01 h. Besides, in “Pharmacokinetics in dogs” (male, sc, 2.43 mg/kg), the AUC(0-t) stood at 5.07 µM·h and the half-life is 1.21 h. In addition, in data set [2], the plasma protein binding result was “higher plasma protein binding than did EC1669”. In addition, in data set [3], the plasma protein binding result was “higher plasma protein binding than did EC1669”.

The term AUC(0-t) denotes the area under the concentration-time curve up to a stated or last time point. A lower AUC(0-t) goes with less exposure. For orientation: Cmax means the maximum level reached in the sampled fluid or tissue. Broadly, the Tmax is the time at which the peak concentration occurs. In general, half-life refers to the time needed for the level to fall by half in the phase considered. Higher therefore signals slow decline. Broadly, the Vd is the apparent volume that relates the amount in the body to the concentration in plasma or blood. Read a low Vd as confinement near the circulation. Usually clearance stands for the volume of plasma or blood freed of the substance per unit of time. Lower therefore signals inefficient removal.
